2 proteins from article PMC12797046 can be followed below.

Data set [1] in a line: cycloheximide chase, degradation rate. To be noted: glycan lost; control: LATS1-WT.
The nature of data set [2]: HA-Ub co-transfection, MG-132, anti-MYC IP, blot. To be noted: glycan lost; control: LATS1-WT.
Data set [3] is described as follows: Nub-Gal4 overexpression, wing area. To be noted: glycan lost; control: Nub > LATS1, standard medium.
A short description of data set [4]: Nub-Gal4 overexpression, wing area, no-glucose medium. As to conditions: glycan lost; control: Nub > LATS1, glucose-free medium.

B1: LATS1: 4A (protein)
parent chain: MKRSEKPEGYRQMRPKTFPASNYTVSSRQMLQEIRESLRNLSKPSDAAKAEHNMSKMSTEDPRQVRNPPKFGTHHKALQEIRNSLLPFANETNSSRSTSEVNPQMLQDLQAAGFDEDMVIQALQKTNNRSIEAAIEFISKMSYQDPRREQMAAAAARPINASMKPGNVQQSVNRKQSWKGSKESLVPQRHGPPLGESVAYHSESPNSQTDVGRPLSGSGISAFVQAHPSNGQRVNPPPPPQVRSVTPPPPPRGQTPPPRGTTPPPPSWEPNSQTKRYSGNMEYVISRISPVPPGAWQEGYPPPPLNTSPMNPPNQGQRGISSVPVGRQPIIMQSSSKFNFPSGRPGMQNGTGQTDFMIHQNVVPAGTVNRQPPPPYPLTAANGQSPSALQTGGSAAPSSYTNGSIPQSMMVPNRNSHNMELYNISVPGLQTNWPQSSSAPAQSSPSSGHEIPTWQPNIPVRSNSFNNPLGNRASHSANSQPSATTVTAITPAPIQQPVKSMRVLKPELQTALAPTHPSWIPQPIQTVQPSPFPEGTASNVTVMPPVAEAPNYQGPPPPYPKHLLHQNPSVPPYESISKPSKEDQPSLPKEDESEKSYENVDSGDKEKKQITTSPITVRKNKKDEERRESRIQSYSPQAFKFFMEQHVENVLKSHQQRLHRKKQLENEMMRVGLSQDAQDQMRKMLCQKESNYIRLKRAKMDKSMFVKIKTLGIGAFGEVCLARKVDTKALYATKTLRKKDVLLRNQVAHVKAERDILAEADNEWVVRLYYSFQDKDNLYFVMDYIPGGDMMSLLIRMGIFPESLARFYIAELTCAVESVHKMGFIHRDIKPDNILIDRDGHIKLTDFGLCTGFRWTHDSKYYQSGDHPRQDSMDFSNEWGDPSSCRCGDRLKPLERRAARQHQRCLAHSLVGTPNYIAPEVLLRTGYTQLCDWWSVGVILFEMLVGQPPFLAQTPLETQMKVINWQTSLHIPPQAKLSPEASDLIIKLCRGPEDRLGKNGADEIKAHPFFKTIDFSSDLRQQSASYIPKITHPTDTSNFDPVDPDKLWSDDNEEENVNDTLNGWYKNGKHPEHAFYEFTFRRFFDDNGYPYNYPKPIEYEYINSQGSEQQSDEDDQNTGSEIKNRDLVYV
For B1, the degradation_or_half_life entry in data set [1] is given as “decreases”. Besides, in data set [2], the “other: ubiquitination” value was “decreases”.

B2: LATS1: LATS1-4A (protein)
parent chain: B1 parent chain
B2: the “other: Drosophila wing size” value was “decreases” in data set [3] and “no change” in data set [4].
